Measurements: US9872887B2, “Extracellular matrix-binding synthetic peptidoglycans” (Purdue Research Foundation, priority 2013, dated 2018)

Assay: Rheological measurements on bovine vitreous
Settings: trypsin treated vs no treatment and PBS buffer; FIG. 3A
Excerpt: The synthetic peptidoglycans according to the present disclosure can be tested as follows. Viscoelastic properties can be measured using a rheometer, for example the TAInstruments ARG2 rheometer. A cone and plate geometry or a parallel plate geometry can be used. Vitreous humor (e.g., bovine) can be placed within the geometry. The temperature can be controlled and frequency sweeps can be performed from ranges of about 0.1 Hz to about 100 Hz (e.g., 1 Hz) and storage, loss, and complex modulus can be measured at an oscillatory shear stress between about 0.1 Pa and about 10 Pa (e.g., 10 Pa). Temperature: 37° C.

## trypsin
  viscosity of bovine vitreous: lower viscosity
